# Measured values published in US20260226126A1 (ANWITA BIOSCIENCES, published 2026).
# T1: CD122 (human, UniProt P14784 27-239)
# T1 construct: also called IL-2Rβ; hIL-2 receptor
# T1 sequence: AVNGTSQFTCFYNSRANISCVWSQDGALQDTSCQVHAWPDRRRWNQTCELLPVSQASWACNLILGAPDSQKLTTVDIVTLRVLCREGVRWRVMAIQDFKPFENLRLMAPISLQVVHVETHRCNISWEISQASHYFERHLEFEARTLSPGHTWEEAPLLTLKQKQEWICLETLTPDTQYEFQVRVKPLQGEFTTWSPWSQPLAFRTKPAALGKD
# T2: AVITAG CD122/CD132 heterodimer (human, UniProt P14784 27-239; P31785 23-262)
# T2 construct: also called IL-2Rβ/γ
# T2 sequence 1: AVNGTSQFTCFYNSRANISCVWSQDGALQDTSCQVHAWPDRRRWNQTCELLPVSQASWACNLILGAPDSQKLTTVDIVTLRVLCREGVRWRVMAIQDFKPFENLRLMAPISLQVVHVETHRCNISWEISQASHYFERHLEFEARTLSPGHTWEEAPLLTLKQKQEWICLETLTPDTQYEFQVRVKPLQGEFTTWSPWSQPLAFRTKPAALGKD
# T2 sequence 2: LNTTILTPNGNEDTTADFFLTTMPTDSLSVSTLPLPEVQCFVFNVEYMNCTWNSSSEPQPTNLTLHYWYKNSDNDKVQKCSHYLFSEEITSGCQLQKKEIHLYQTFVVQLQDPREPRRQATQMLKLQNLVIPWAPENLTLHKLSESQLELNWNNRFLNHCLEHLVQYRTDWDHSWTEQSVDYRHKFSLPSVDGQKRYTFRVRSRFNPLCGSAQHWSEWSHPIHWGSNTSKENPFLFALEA
# T3: His-tagged IL-2Rα (CD25) protein (human, UniProt P01589 22-240)
# T3 construct: also called Human IL-2Rα
# T3 sequence: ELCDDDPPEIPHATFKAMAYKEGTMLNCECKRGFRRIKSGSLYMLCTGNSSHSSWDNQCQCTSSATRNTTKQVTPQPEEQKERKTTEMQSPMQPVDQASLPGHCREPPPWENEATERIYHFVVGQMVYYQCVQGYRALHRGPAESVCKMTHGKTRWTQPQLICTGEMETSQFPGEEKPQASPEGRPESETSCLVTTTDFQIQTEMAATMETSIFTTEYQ
# T4: His-tagged & Twin Strep-tagged human IL-2Rβ & IL-2Rγ heterodimer protein (human, UniProt P14784 27-239; P31785 23-262)
# T4 construct: also called Human IL-2Rβγ; human IL-2Rβγ (His)
# T4 sequence 1: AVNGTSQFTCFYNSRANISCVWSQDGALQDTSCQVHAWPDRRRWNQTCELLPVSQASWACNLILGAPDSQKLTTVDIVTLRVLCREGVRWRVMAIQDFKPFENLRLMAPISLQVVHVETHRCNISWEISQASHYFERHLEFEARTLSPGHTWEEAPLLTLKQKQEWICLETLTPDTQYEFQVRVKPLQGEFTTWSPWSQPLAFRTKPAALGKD
# T4 sequence 2: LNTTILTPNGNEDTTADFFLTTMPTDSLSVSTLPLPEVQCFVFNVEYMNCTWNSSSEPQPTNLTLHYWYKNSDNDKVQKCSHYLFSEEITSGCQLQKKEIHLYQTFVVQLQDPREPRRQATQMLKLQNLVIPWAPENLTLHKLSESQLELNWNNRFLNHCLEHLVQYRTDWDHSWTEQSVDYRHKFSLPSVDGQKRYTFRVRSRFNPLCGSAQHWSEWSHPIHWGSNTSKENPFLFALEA
# How the values were obtained:
# CD122 = biological target: T1, CD122; experiment: BLI (OCTET RED96); receptor loaded on biosensor, IL-2 mutein in solution at 10 to 2,000 nM
# Method: (§1) CD122 and AVITAG CD122/CD132 heterodimer were purchased from ACROBIOSYSTEMS, Inc. The protein samples were diluted in the OCTET® kinetic buffer. […] The association and dissociation sensorgram was fitted by global or local fitting using the OCTET® Data Analysis HT software.
# [1] = biological target: T2, AVITAG CD122/CD132 heterodimer; experiment: as above
# Method: as §1
# His-tagged human PD-1 = biological target: T5, His-tagged human PD-1 (human, UniProt Q15116 25-167, limits assumed); experiment: BLI (OCTET RED96); fusion protein A1 captured on anti-human-Fc (AHC) biosensor, serially diluted His-tagged human PD-1 in solution
# T5 construct: also called His-tagged human PD-1 protein
# T5 sequence (Q15116 25-167 limits assumed): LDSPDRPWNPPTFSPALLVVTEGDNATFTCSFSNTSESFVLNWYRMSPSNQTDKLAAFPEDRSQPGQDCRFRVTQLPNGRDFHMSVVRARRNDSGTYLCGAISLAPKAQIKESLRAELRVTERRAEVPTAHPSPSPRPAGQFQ
# From the text: (§2) Anti-PD-1/IL-2 fusion protein A1 was made by co-expression of SEQ ID NOs: 160 and 161 in CHO cells. OCTET® RED96 was used to study the interaction between anti-PD-1/IL-2 fusion protein A1 and human PD-1 or IL-2 receptors. For the binding study of the human PD-1, anti-human-Fc (AHC) biosensors were used to capture anti-PD-1/IL-2 fusion protein A1. The coated biosensors were associated with serially diluted His-tagged human PD-1 protein at predetermined concentrations. For the binding study of human IL-2 receptors, anti-penta-HIS (HIS1K) biosensors were used to capture human IL-2Rα or human IL-2Rβγ (His) proteins. The coated biosensors were associated with serially diluted anti-PD-1/IL-2 fusion protein A1 at predetermined concentrations.
# [2] = biological target: T3, His-tagged IL-2Rα (CD25) protein; experiment: BLI (OCTET RED96); His-tagged receptor captured on anti-penta-HIS (HIS1K) biosensor, serially diluted fusion protein A1 in solution
# From the text: as §2
# [3] = biological target: T4, His-tagged & Twin Strep-tagged human …; experiment: BLI (OCTET RED96); His-tagged receptor heterodimer captured on anti-penta-HIS (HIS1K) biosensor, serially diluted fusion protein A1 in solution
# From the text: as §2
Binder,Kd (CD122),Kd [1],also measured
"hIL-2 Mutein (T3A, F42A, Y45A, L72G, C125S) (ligand, no fusion partner is stated) APASSSTKKTQLQLEHLLLDLQMILNGINNYKNPKLTRMLTAKFAMPKKATELKHLQCLEEELKPLEEVLNGAQSKNFHLRPRDLISNINVIVLELKGSETTFMCEYADETATIVEFLNRWITFSQSIISTLT",550 nM,6.8 nM,–
"hIL-2 Mutein (T3A, R38E, F42A, K76E, C125S) (ligand, no fusion partner is stated) APASSSTKKTQLQLEHLLLDLQMILNGINNYKNPKLTEMLTAKFYMPKKATELKHLQCLEEELKPLEEVLNLAQSENFHLRPRDLISNINVIVLELKGSETTFMCEYADETATIVEFLNRWITFSQSIISTLT",–,1 nM,–
"Anti-PD-1/IL-2 fusion protein A1 (Fc fusion, The two chains form a knobs-into-holes heterodimer) chain 1: QVQLLESGGGLVKPGGSLRLSCAASGRTYAMGWFRRAPGKESEFVAEIRWSSTFTDYADSVKGRFTISRDNAENSAYLQMNSLRAEDTAVYHCAAQTSQRGTLYDSYGQGTQVTVSSESKYGPPCPPCPAPEFLGGPSVFLFPPKPKDTLMISRTPEVTCVVVDVSQEDPEVQFNWYVDGVEVHNAKTKPREEQFNSTYRVVSVLTVLHQDWLNGKEYKCKVSNKGLPSSIEKTISKAKGQPREPQVCTLPPSQEEMTKNQVSLSCAVKGFYPSDIAVEWESNGQPENNYKTTPPVLDSDGSFFLVSRLTVDKSRWQEGNVFSCSVMHEALHNHYTQKSLSLSLGAGGGGSGGGGSGGGGSAPASSSTKKTQLQLEHLSLDLQMILNGIQSMEIDATTFKFYMPKKATELKHLQCLEEELKPLEEVLNLAQSKNFHLRPRDLISNINVIVLELKGSETTFMCEYADETATIVEFLNRWITFSESIISTLT chain 2: QVQLLESGGGLVKPGGSLRLSCAASGRTYAMGWFRRAPGKESEFVAEIRWSSTFTDYADSVKGRFTISRDNAENSAYLQMNSLRAEDTAVYHCAAQTSQRGTLYDSYGQGTQVTVSSESKYGPPCPPCPAPEFLGGPSVFLFPPKPKDTLMISRTPEVTCVVVDVSQEDPEVQFNWYVDGVEVHNAKTKPREEQFNSTYRVVSVLTVLHQDWLNGKEYKCKVSNKGLPSSIEKTISKAKGQPREPQVYTLPPCQEEMTKNQVSLWCLVKGFYPSDIAVEWESNGQPENNYKTTPPVLDSDGSFFLYSRLTVDKSRWQEGNVFSCSVMHEALHNHYTQKSLSLSLGK",–,–,Kd (His-tagged human PD-1): 5 nM; binding result [2]: no binding; Kd [3]: 12 nM
"IL-2-IL-15 Chimera 2 (T3A, C125S) (ligand, hIL-2 with N29-L40 replaced by an IL-15 hinge fragment-containing peptide; no fusion partner is stated) APASSSTKKTQLQLEHLLLDLQMILNGIQSMEIDATTFKFYMPKKATELKHLQCLEEELKPLEEVLNLAQSKNFHLRPRDLISNINVIVLELKGSETTFMCEYADETATIVEFLNRWITFSQSIISTLT",104 nM,11 nM,–
"IL-2-IL-15 Chimera 29 (I92A, C125S) (ligand, no fusion partner is stated) APTSSSTKKTQLQLEHLLLDLQMILNGIQSMEIDATTFKFYMPKKATELKHLQCLEEELKPLEEVLNLAQSKNFHLRPRDLISNINVAVLELKGSETTFMCEYADETATIVEFLNRWITFSQSIISTLT",–,3.5 nM,–
"IL-2-IL-15 Chimera 56 (T3A, C125S, S130R) (ligand, no fusion partner is stated) APASSSTKKTQLQLEHLLLDLQMILNGIQSMEIDATTFKFYMPKKATELKHLQCLEEELKPLEEVLNLAQSKNFHLRPRDLISNINVIVLELKGSETTFMCEYADETATIVEFLNRWITFSQSIIRTLT",808 nM,12 nM,–
"IL-2-IL-15 Chimera 64 (T3A, L18C, Q126S) (ligand, no fusion partner is stated) APASSSTKKTQLQLEHLCLDLQMILNGIQSMEIDATTFKFYMPKKATELKHLQCLEEELKPLEEVLNLAQSKNFHLRPRDLISNINVIVLELKGSETTFMCEYADETATIVEFLNRWITFCSSIISTLT",–,382 nM,–
"IL-2-IL-15 Chimera 42 (E15K, N88A, C125S) (ligand, no fusion partner is stated) APTSSSTKKTQLQLKHLLLDLQMILNGIQSMEIDATTFKFYMPKKATELKHLQCLEEELKPLEEVLNLAQSKNFHLRPRDLISAINVIVLELKGSETTFMCEYADETATIVEFLNRWITFSQSIISTLT",–,53 nM,–
"IL-2-IL-15 Chimera 68 (T3A, C125S, Q126T, S130R) (ligand, no fusion partner is stated) APASSSTKKTQLQLEHLLLDLQMILNGIQSMEIDATTFKFYMPKKATELKHLQCLEEELKPLEEVLNLAQSKNFHLRPRDLISNINVIVLELKGSETTFMCEYADETATIVEFLNRWITFSTSIIRTLT",466 nM,32 nM,–
"IL-2-IL-15 Chimera 58 (T3A, L18C, Q126E) (ligand, no fusion partner is stated) APASSSTKKTQLQLEHLCLDLQMILNGIQSMEIDATTFKFYMPKKATELKHLQCLEEELKPLEEVLNLAQSKNFHLRPRDLISNINVIVLELKGSETTFMCEYADETATIVEFLNRWITFCESIISTLT",188 nM,229 nM,–
"IL-2-IL-15 Chimera 69 (T3A, L18S, C125S, Q126E) (ligand, no fusion partner is stated) APASSSTKKTQLQLEHLSLDLQMILNGIQSMEIDATTFKFYMPKKATELKHLQCLEEELKPLEEVLNLAQSKNFHLRPRDLISNINVIVLELKGSETTFMCEYADETATIVEFLNRWITFSESIISTLT",–,322 nM,–
"IL-2-IL-15 Chimera 46 (T3A, C125S, Q126E) (ligand, no fusion partner is stated) APASSSTKKTQLQLEHLLLDLQMILNGIQSMEIDATTFKFYMPKKATELKHLQCLEEELKPLEEVLNLAQSKNFHLRPRDLISNINVIVLELKGSETTFMCEYADETATIVEFLNRWITFSESIISTLT",–,219 nM,–
"IL-2-IL-15 Chimera 54 (T3A, C125S, Q126T) (ligand, no fusion partner is stated) APASSSTKKTQLQLEHLLLDLQMILNGIQSMEIDATTFKFYMPKKATELKHLQCLEEELKPLEEVLNLAQSKNFHLRPRDLISNINVIVLELKGSETTFMCEYADETATIVEFLNRWITFSTSIISTLT",650 nM,30 nM,–
"IL-2-IL-15 Chimera 44 (T3A, L18C) (ligand, no fusion partner is stated) APASSSTKKTQLQLEHLCLDLQMILNGIQSMEIDATTFKFYMPKKATELKHLQCLEEELKPLEEVLNLAQSKNFHLRPRDLISNINVIVLELKGSETTFMCEYADETATIVEFLNRWITFCQSIISTLT",–,12 nM,–
